System: Escherichia coli TOP10
Experiment: shrunken log2 fold change of peptide-encoding DNA abundance (4.5 h post-induction vs induction); higher = less antimicrobial activity (less host growth inhibition)
Conditions: time post-induction: 4.5 h; library: site-saturation at positions 5, 18, 19, 20
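Also: peptides expressed intracellularly from a pBAD plasmid library in pooled LB shake-flask culture, induced with 0.3% L-arabinose, DNA abundance read by NGS, three biological replicates, DESeq2 with apeglm shrinkage.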

RRIRMRPPRLPRPRPRPTCIPRP was tested, and the “shrunken log2 fold change” value was -0.00872.

With RRIRIRPPRLPRPRPRPCFNPRP the “shrunken log2 fold change” value was -0.87.

In the case of RRIRTRPPRLPRPRPRPMSEPRP, the “shrunken log2 fold change” value is reported as -0.00136.

RRIRHRPPRLPRPRPRPSVWPRP was tested, and the “shrunken log2 fold change” value was -0.151.

With RRIRYRPPRLPRPRPRPNHIPRP the “shrunken log2 fold change” value was -1.27.

RRIRGRPPRLPRPRPRPPHPPRP was tested, and the “shrunken log2 fold change” value was 0.643.

In the case of RRIRGRPPRLPRPRPRPLNTPRP, the “shrunken log2 fold change” value is reported as 0.0396.

RRIRHRPPRLPRPRPRPLDHPRP was tested, and the “shrunken log2 fold change” value was -0.34.

For RRIRARPPRLPRPRPRPAGQPRP, the “shrunken log2 fold change” value was 0.143.

For RRIRNRPPRLPRPRPRPPGAPRP, the “shrunken log2 fold change” value was 0.665.

With RRIRTRPPRLPRPRPRPCLVPRP the “shrunken log2 fold change” value was -0.175.

RRIRWRPPRLPRPRPRPWWDPRP was tested, and the “shrunken log2 fold change” value was 0.0125.

For RRIRIRPPRLPRPRPRPFFNPRP, the “shrunken log2 fold change” value was -0.501.

In the case of RRIRYRPPRLPRPRPRPLWDPRP, the “shrunken log2 fold change” value is reported as -0.717.

In the case of RRIRFRPPRLPRPRPRPATAPRP, the “shrunken log2 fold change” value is reported as 0.106.

RRIRYRPPRLPRPRPRPVCIPRP was tested, and the “shrunken log2 fold change” value was -1.24.

With RRIRARPPRLPRPRPRPGHSPRP the “shrunken log2 fold change” value was -0.0933.

With RRIRGRPPRLPRPRPRPRQSPRP the “shrunken log2 fold change” value was 0.647.

RRIRMRPPRLPRPRPRPYTNPRP was tested, and the “shrunken log2 fold change” value was -0.165.

With RRIRKRPPRLPRPRPRPKMIPRP the “shrunken log2 fold change” value was -0.0764.

RRIRCRPPRLPRPRPRPQMCPRP was tested, and the “shrunken log2 fold change” value was -0.157.

For RRIRFRPPRLPRPRPRPRWIPRP, the “shrunken log2 fold change” value was 0.0967.

In the case of RRIRWRPPRLPRPRPRPMCWPRP, the “shrunken log2 fold change” value is reported as 0.883.

In the case of RRIRFRPPRLPRPRPRPEDRPRP, the “shrunken log2 fold change” value is reported as 0.045.

For RRIRARPPRLPRPRPRPDVEPRP, the “shrunken log2 fold change” value was 0.389.

RRIRYRPPRLPRPRPRPVCVPRP was tested, and the “shrunken log2 fold change” value was -0.339.

RRIRTRPPRLPRPRPRPQTAPRP was tested, and the “shrunken log2 fold change” value was -0.0946.

With RRIRPRPPRLPRPRPRPCICPRP the “shrunken log2 fold change” value was -0.728.

RRIRTRPPRLPRPRPRPADRPRP was tested, and the “shrunken log2 fold change” value was -0.108.

For RRIRARPPRLPRPRPRPEFAPRP, the “shrunken log2 fold change” value was 0.727.

With RRIRGRPPRLPRPRPRPLEIPRP the “shrunken log2 fold change” value was 0.428.

In the case of RRIRKRPPRLPRPRPRPYWIPRP, the “shrunken log2 fold change” value is reported as -0.0363.

In the case of RRIRPRPPRLPRPRPRPKHGPRP, the “shrunken log2 fold change” value is reported as 0.127.

With RRIRHRPPRLPRPRPRPCMEPRP the “shrunken log2 fold change” value was -0.0962.

For RRIRRRPPRLPRPRPRPKALPRP, the “shrunken log2 fold change” value was 0.237.

For RRIRFRPPRLPRPRPRPRLYPRP, the “shrunken log2 fold change” value was -0.014.

RRIRCRPPRLPRPRPRPGKSPRP was tested, and the “shrunken log2 fold change” value was 0.0822.

In the case of RRIRDRPPRLPRPRPRPYPHPRP, the “shrunken log2 fold change” value is reported as 1.85.

With RRIRRRPPRLPRPRPRPAVWPRP the “shrunken log2 fold change” value was 0.399.

With RRIRRRPPRLPRPRPRPHVNPRP the “shrunken log2 fold change” value was -0.0608.

In the case of RRIRVRPPRLPRPRPRPSNCPRP, the “shrunken log2 fold change” value is reported as -0.225.

For RRIRNRPPRLPRPRPRPNYCPRP, the “shrunken log2 fold change” value was 0.0133.

In the case of RRIRKRPPRLPRPRPRPELVPRP, the “shrunken log2 fold change” value is reported as 0.133.

With RRIRHRPPRLPRPRPRPVMSPRP the “shrunken log2 fold change” value was -0.0285.

In the case of RRIRQRPPRLPRPRPRPTVMPRP, the “shrunken log2 fold change” value is reported as 0.0964.

For RRIRNRPPRLPRPRPRPYMIPRP, the “shrunken log2 fold change” value was 0.0323.

In the case of RRIRLRPPRLPRPRPRPKIKPRP, the “shrunken log2 fold change” value is reported as -0.36.

RRIRDRPPRLPRPRPRPQQIPRP was tested, and the “shrunken log2 fold change” value was -0.148.

With RRIRFRPPRLPRPRPRPDAPPRP the “shrunken log2 fold change” value was 0.421.

For RRIRRRPPRLPRPRPRPLRYPRP, the “shrunken log2 fold change” value was 0.463.

In the case of RRIRTRPPRLPRPRPRPQLSPRP, the “shrunken log2 fold change” value is reported as 0.212.

With RRIRVRPPRLPRPRPRPMADPRP the “shrunken log2 fold change” value was -0.0473.

In the case of RRIRNRPPRLPRPRPRPFILPRP, the “shrunken log2 fold change” value is reported as -0.634.

In the case of RRIRSRPPRLPRPRPRPNDPPRP, the “shrunken log2 fold change” value is reported as -0.619.

With RRIRLRPPRLPRPRPRPTRDPRP the “shrunken log2 fold change” value was 0.454.

RRIRSRPPRLPRPRPRPSTFPRP was tested, and the “shrunken log2 fold change” value was -0.109.

RRIRRRPPRLPRPRPRPPTAPRP was tested, and the “shrunken log2 fold change” value was 0.569.

With RRIRARPPRLPRPRPRPGTGPRP the “shrunken log2 fold change” value was 0.158.

With RRIRCRPPRLPRPRPRPGEKPRP the “shrunken log2 fold change” value was 0.0653.

For RRIRDRPPRLPRPRPRPMVRPRP, the “shrunken log2 fold change” value was 0.152.

RRIRERPPRLPRPRPRPAAKPRP was tested, and the “shrunken log2 fold change” value was 0.0307.

With RRIRARPPRLPRPRPRPLMEPRP the “shrunken log2 fold change” value was 0.493.

For RRIRNRPPRLPRPRPRPAGKPRP, the “shrunken log2 fold change” value was -0.0122.

With RRIRRRPPRLPRPRPRPDHYPRP the “shrunken log2 fold change” value was -2.95.

With RRIRFRPPRLPRPRPRPPPIPRP the “shrunken log2 fold change” value was 1.02.

With RRIRARPPRLPRPRPRPAAAPRP the “shrunken log2 fold change” value was 1.11.

RRIRHRPPRLPRPRPRPQNVPRP was tested, and the “shrunken log2 fold change” value was -0.0702.

In the case of RRIRARPPRLPRPRPRPEVAPRP, the “shrunken log2 fold change” value is reported as 0.214.

For RRIRFRPPRLPRPRPRPYEDPRP, the “shrunken log2 fold change” value was -0.951.

For RRIRSRPPRLPRPRPRPCFMPRP, the “shrunken log2 fold change” value was 0.914.

RRIRNRPPRLPRPRPRPAMMPRP was tested, and the “shrunken log2 fold change” value was 0.0394.

With RRIRFRPPRLPRPRPRPHEHPRP the “shrunken log2 fold change” value was -0.135.

For RRIRGRPPRLPRPRPRPSKEPRP, the “shrunken log2 fold change” value was 0.289.

For RRIRMRPPRLPRPRPRPFATPRP, the “shrunken log2 fold change” value was 0.609.

For RRIRYRPPRLPRPRPRPGKIPRP, the “shrunken log2 fold change” value was -0.524.

In the case of RRIRWRPPRLPRPRPRPGRYPRP, the “shrunken log2 fold change” value is reported as -0.137.

For RRIRWRPPRLPRPRPRPRCDPRP, the “shrunken log2 fold change” value was 0.429.

In the case of RRIRYRPPRLPRPRPRPIGLPRP, the “shrunken log2 fold change” value is reported as -0.0167.

With RRIRSRPPRLPRPRPRPCIEPRP the “shrunken log2 fold change” value was -0.21.

In the case of RRIRPRPPRLPRPRPRPRQEPRP, the “shrunken log2 fold change” value is reported as 3.83.

RRIRQRPPRLPRPRPRPPQYPRP was tested, and the “shrunken log2 fold change” value was 0.198.

For RRIRHRPPRLPRPRPRPCETPRP, the “shrunken log2 fold change” value was -0.332.

RRIRWRPPRLPRPRPRPYGNPRP was tested, and the “shrunken log2 fold change” value was -0.338.

RRIRYRPPRLPRPRPRPYKNPRP was tested, and the “shrunken log2 fold change” value was -1.42.

With RRIRWRPPRLPRPRPRPKELPRP the “shrunken log2 fold change” value was 0.501.

RRIRGRPPRLPRPRPRPHYCPRP was tested, and the “shrunken log2 fold change” value was 0.167.

RRIRQRPPRLPRPRPRPERYPRP was tested, and the “shrunken log2 fold change” value was -0.0565.

RRIRSRPPRLPRPRPRPDYLPRP was tested, and the “shrunken log2 fold change” value was -0.0749.

RRIRPRPPRLPRPRPRPQQFPRP was tested, and the “shrunken log2 fold change” value was -0.049.

RRIRKRPPRLPRPRPRPREHPRP was tested, and the “shrunken log2 fold change” value was 0.0968.

For RRIRYRPPRLPRPRPRPEWPPRP, the “shrunken log2 fold change” value was -0.0693.

In the case of RRIRIRPPRLPRPRPRPFKQPRP, the “shrunken log2 fold change” value is reported as -0.246.

With RRIRNRPPRLPRPRPRPHHGPRP the “shrunken log2 fold change” value was -0.00683.

In the case of RRIRQRPPRLPRPRPRPYLIPRP, the “shrunken log2 fold change” value is reported as -0.89.

With RRIRLRPPRLPRPRPRPAVRPRP the “shrunken log2 fold change” value was 0.0913.

RRIRLRPPRLPRPRPRPSCGPRP was tested, and the “shrunken log2 fold change” value was -0.583.

RRIRKRPPRLPRPRPRPFKHPRP was tested, and the “shrunken log2 fold change” value was -0.0024.

RRIRRRPPRLPRPRPRPCEFPRP was tested, and the “shrunken log2 fold change” value was -0.109.

With RRIRLRPPRLPRPRPRPYRGPRP the “shrunken log2 fold change” value was -0.246.

For RRIRHRPPRLPRPRPRPFAVPRP, the “shrunken log2 fold change” value was -1.08.

RRIRLRPPRLPRPRPRPWQAPRP was tested, and the “shrunken log2 fold change” value was 0.226.

In the case of RRIRYRPPRLPRPRPRPLRVPRP, the “shrunken log2 fold change” value is reported as -0.0922.

For RRIRFRPPRLPRPRPRPMNWPRP, the “shrunken log2 fold change” value was -0.143.

RRIRWRPPRLPRPRPRPCTMPRP was tested, and the “shrunken log2 fold change” value was -0.00405.

RRIRGRPPRLPRPRPRPTVSPRP was tested, and the “shrunken log2 fold change” value was 0.731.

In the case of RRIRVRPPRLPRPRPRPSAPPRP, the “shrunken log2 fold change” value is reported as 0.358.

For RRIRSRPPRLPRPRPRPFDRPRP, the “shrunken log2 fold change” value was -0.118.

In the case of RRIRPRPPRLPRPRPRPWDAPRP, the “shrunken log2 fold change” value is reported as 0.0508.

With RRIRTRPPRLPRPRPRPVPEPRP the “shrunken log2 fold change” value was 0.323.

In the case of RRIRGRPPRLPRPRPRPACFPRP, the “shrunken log2 fold change” value is reported as 0.939.

With RRIRLRPPRLPRPRPRPHSNPRP the “shrunken log2 fold change” value was -0.443.

In the case of RRIRRRPPRLPRPRPRPRFDPRP, the “shrunken log2 fold change” value is reported as 0.121.

With RRIRQRPPRLPRPRPRPEIQPRP the “shrunken log2 fold change” value was 0.0108.

In the case of RRIRLRPPRLPRPRPRPEAGPRP, the “shrunken log2 fold change” value is reported as 0.375.

In the case of RRIRRRPPRLPRPRPRPIEIPRP, the “shrunken log2 fold change” value is reported as 0.0138.

In the case of RRIRTRPPRLPRPRPRPYEKPRP, the “shrunken log2 fold change” value is reported as -0.657.

For RRIRCRPPRLPRPRPRPPPAPRP, the “shrunken log2 fold change” value was 1.46.

In the case of RRIRFRPPRLPRPRPRPPSPPRP, the “shrunken log2 fold change” value is reported as 0.688.

For RRIRPRPPRLPRPRPRPAHRPRP, the “shrunken log2 fold change” value was 0.384.

For RRIRLRPPRLPRPRPRPLFSPRP, the “shrunken log2 fold change” value was -0.588.

With RRIRWRPPRLPRPRPRPTIGPRP the “shrunken log2 fold change” value was 0.217.

In the case of RRIRGRPPRLPRPRPRPEVKPRP, the “shrunken log2 fold change” value is reported as 0.0386.

For RRIRLRPPRLPRPRPRPGGMPRP, the “shrunken log2 fold change” value was -0.16.

For RRIRTRPPRLPRPRPRPPSMPRP, the “shrunken log2 fold change” value was 0.13.

For RRIRRRPPRLPRPRPRPNFPPRP, the “shrunken log2 fold change” value was 0.46.
